Results taken from PMC12581312, “Lung endothelial PEAR1 induces tumor cell dormancy” (Molecular Cancer, 2025).

Molecular target: T1, Human recombinant LOXL2 (lysyl oxidase like 2) (human, UniProt Q9Y4K0 26-774)
T1 construct: lysyl oxidase like 2 (LOXL2), human, recombinant; source: bought: R&D Systems (catalog #2639-AO-010)
T1 sequence (looked up): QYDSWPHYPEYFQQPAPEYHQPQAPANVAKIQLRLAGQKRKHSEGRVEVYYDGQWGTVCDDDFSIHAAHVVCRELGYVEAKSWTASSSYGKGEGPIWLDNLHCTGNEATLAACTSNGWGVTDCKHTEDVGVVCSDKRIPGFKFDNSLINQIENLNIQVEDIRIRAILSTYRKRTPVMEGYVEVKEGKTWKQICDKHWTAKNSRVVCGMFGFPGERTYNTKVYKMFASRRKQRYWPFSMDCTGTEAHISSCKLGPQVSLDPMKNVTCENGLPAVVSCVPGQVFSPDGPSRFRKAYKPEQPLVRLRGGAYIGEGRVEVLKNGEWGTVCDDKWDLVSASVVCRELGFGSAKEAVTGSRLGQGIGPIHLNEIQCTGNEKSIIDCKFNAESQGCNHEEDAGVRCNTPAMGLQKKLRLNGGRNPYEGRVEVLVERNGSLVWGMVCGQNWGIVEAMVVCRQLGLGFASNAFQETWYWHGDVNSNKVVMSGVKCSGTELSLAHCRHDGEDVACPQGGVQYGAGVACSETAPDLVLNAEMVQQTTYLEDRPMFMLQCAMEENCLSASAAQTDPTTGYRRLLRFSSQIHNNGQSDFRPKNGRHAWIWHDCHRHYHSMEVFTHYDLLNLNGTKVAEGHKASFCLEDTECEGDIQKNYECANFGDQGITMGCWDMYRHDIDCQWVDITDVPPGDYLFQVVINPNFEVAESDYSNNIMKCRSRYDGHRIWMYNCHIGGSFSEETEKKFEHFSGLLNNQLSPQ
Test: pull-down; recombinant human PEAR1 (100 nM) immobilised on Ni-NTA magnetic beads, incubated with 100 nM recombinant human CTSD, SEMA6D or LOXL2 in 50 mM NaH2PO4, 300 mM NaCl, 20 mM imidazole, pH 8.0, 1 h at room temperature; control Ni-NTA beads; immunoblotting
Settings: both partners purified

B1: Human recombinant PEAR1 extracellular part (platelet and endothelial aggregation receptor 1), His-tagged (domain or fragment, UniProt Q5VY43 21-755, looked up)
chain: LNPSDPNTCSFWESFTTTTKESHSRPFSLLPSEPCERPWEGPHTCPQPTVVYRTVYRQVVKTDHRQRLQCCHGFYESRGFCVPLCAQECVHGRCVAPNQCQCVPGWRGDDCSSECAPGMWGPQCDKPCSCGNNSSCDPKSGVCSCPSGLQPPNCLQPCTPGYYGPACQFRCQCHGAPCDPQTGACFCPAERTGPSCDVSCSQGTSGFFCPSTHSCQNGGVFQTPQGSCSCPPGWMGTICSLPCPEGFHGPNCSQECRCHNGGLCDRFTGQCRCAPGYTGDRCREECPVGRFGQDCAETCDCAPDARCFPANGACLCEHGFTGDRCTDRLCPDGFYGLSCQAPCTCDREHSLSCHPMNGECSCLPGWAGLHCNESCPQDTHGPGCQEHCLCLHGGVCQATSGLCQCAPGYTGPHCASLCPPDTYGVNCSARCSCENAIACSPIDGECVCKEGWQRGNCSVPCPPGTWGFSCNASCQCAHEAVCSPQTGACTCTPGWHGAHCQLPCPKGQFGEGCASRCDCDHSDGCDPVHGRCQCQAGWMGARCHLSCPEGLWGVNCSNTCTCKNGGTCLPENGNCVCAPGFRGPSCQRSCQPGRYGKRCVPCKCANHSFCHPSNGTCYCLAGWTGPDCSQPCPPGHWGENCAQTCQCHHGGTCHPQDGSCICPLGWTGHHCLEGCPLGTFGANCSQPCQCGPGEKCHPETGACVCPPGHSGAPCRIGIQEPFTVMPTTPVAYNSL
notes: platelet and endothelial aggregation receptor 1 (PEAR1), human, extracellular part; Held on Ni-NTA magnetic agarose beads by its His tag in the pull-downs; also called rhPEAR1; PEAR1 agarose; source: bought: R&D Systems (catalog #4527-PR-050)
- binding result: binds
